Substitutions are numbered along the chain they refer to. Numbers in names are those of the source.
Legend:
[1] = target: T1, murine USP18^IBB-2-USP7, His6-tagged (mouse, UniProt Q9WTV6 1-368, residues 256-263 (S-A-R-N-S-R-T-E) replaced by the corresponding residues …); assay: cell-based or functional assay
T1 sequence (looked up): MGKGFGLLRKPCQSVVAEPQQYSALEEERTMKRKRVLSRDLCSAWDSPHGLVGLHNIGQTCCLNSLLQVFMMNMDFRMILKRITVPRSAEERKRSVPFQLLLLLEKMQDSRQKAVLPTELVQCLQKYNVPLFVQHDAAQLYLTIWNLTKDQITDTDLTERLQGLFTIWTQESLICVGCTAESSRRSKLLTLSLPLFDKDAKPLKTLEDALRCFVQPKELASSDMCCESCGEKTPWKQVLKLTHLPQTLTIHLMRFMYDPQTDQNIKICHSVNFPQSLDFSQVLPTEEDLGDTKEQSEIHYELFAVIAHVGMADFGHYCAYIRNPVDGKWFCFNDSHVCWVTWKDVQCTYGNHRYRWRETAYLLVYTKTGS

[2] = target: T2, murine USP18 catalytic core (residues 46-368), His6-tagged (mouse, UniProt Q9WTV6 46-368); assay: SPR
T2 sequence (looked up): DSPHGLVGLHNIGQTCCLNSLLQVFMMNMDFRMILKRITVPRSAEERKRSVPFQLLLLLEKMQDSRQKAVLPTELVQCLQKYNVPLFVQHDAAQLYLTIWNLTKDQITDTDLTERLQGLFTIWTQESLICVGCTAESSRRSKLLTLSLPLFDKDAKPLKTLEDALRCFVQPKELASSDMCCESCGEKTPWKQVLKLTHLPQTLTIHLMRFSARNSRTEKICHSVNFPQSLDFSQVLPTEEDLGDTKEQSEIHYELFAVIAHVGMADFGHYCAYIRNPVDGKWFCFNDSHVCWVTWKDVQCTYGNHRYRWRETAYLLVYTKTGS

[3] = target: T3, human USP18 (residues 16-372), tag removed (human, UniProt Q9UMW8 16-372); assay: covalent adduct formation with an active-site probe
T3 sequence (looked up): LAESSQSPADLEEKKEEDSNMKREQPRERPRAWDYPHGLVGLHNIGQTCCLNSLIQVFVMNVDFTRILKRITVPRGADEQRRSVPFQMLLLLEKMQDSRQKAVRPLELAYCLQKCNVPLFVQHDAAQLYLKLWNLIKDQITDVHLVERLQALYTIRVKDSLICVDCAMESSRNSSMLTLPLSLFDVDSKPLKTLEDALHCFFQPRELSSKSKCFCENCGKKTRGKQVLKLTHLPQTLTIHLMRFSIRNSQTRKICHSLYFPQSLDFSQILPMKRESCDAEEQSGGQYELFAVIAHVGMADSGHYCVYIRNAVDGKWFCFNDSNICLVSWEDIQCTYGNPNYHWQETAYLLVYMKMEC

B1: mouse ISG15 (residues 1-155, C76S) (natural protein, UniProt Q64339 1-155, looked up)
chain: MAWDLKVKMLGGNDFLVSVTNSMTVSELKKQIAQKIGVPAFQQRLAHQTAVLQDGLTLSSLGLGPSSTVMLVVQNSSEPLSILVRNERGHSNIYEVFLTQTVDTLKKKVSQREQVHEDQFWLSFEGRPMEDKELLGEYGLKPQCTVIKHLRLRGG
[1]
  catalytic activity towards ISG15-FP, percent of wild type: 65 % of wt activity
[2]
  Kd: 1490 ± 30 nM

B2: mouse ISG15-W121R (C76S) (natural protein, UniProt Q64339 1-155, looked up)
chain: B1 chain with W121R
[2]
  stoichiometry N: 0.4 ISG15 per immobilized USP18

B3: mouse ISG15-PA (full-length ISG15 propargylamide probe, residues 1-154, C76S) (natural protein, UniProt Q64339 1-154, looked up)
chain: MAWDLKVKMLGGNDFLVSVTNSMTVSELKKQIAQKIGVPAFQQRLAHQTAVLQDGLTLSSLGLGPSSTVMLVVQNSSEPLSILVRNERGHSNIYEVFLTQTVDTLKKKVSQREQVHEDQFWLSFEGRPMEDKELLGEYGLKPQCTVIKHLRLRG
modifications: C-terminal propargylamide (PA)
[3]
  binding result: binds

— publication PMC5405867 (Nature structural & molecular biology, 2017)
